The series concerns the molecule itself. Description: cryo-EM structure; single-particle cryo-EM of purified ClC-1 in amphipol PMAL-C8; 20 mM Tris pH 7.5, 100 mM NaCl, 0.2 mM TCEP, no nucleotides or antibodies; also 20 mM BisTris pH 6.2 with 0.3 mM NAD; C2 symmetry applied.

B1: human ClC-1 chloride channel (natural protein, UniProt P35523 1-988, looked up)
chain: MEQSRSQQRGGEQSWWGSDPQYQYMPFEHCTSYGLPSENGGLQHRLRKDAGPRHNVHPTQIYGHHKEQFSDREQDIGMPKKTGSSSTVDSKDEDHYSKCQDCIHRLGQVVRRKLGEDGIFLVLLGLLMALVSWSMDYVSAKSLQAYKWSYAQMQPSLPLQFLVWVTFPLVLILFSALFCHLISPQAVGSGIPEMKTILRGVVLKEYLTMKAFVAKVVALTAGLGSGIPVGKEGPFVHIASICAAVLSKFMSVFCGVYEQPYYYSDILTVGCAVGVGCCFGTPLGGVLFSIEVTSTYFAVRNYWRGFFAATFSAFVFRVLAVWNKDAVTITALFRTNFRMDFPFDLKELPAFAAIGICCGLLGAVFVYLHRQVMLGVRKHKALSQFLAKHRLLYPGIVTFVIASFTFPPGMGQFMAGELMPREAISTLFDNNTWVKHAGDPESLGQSAVWIHPRVNVVIIIFLFFVMKFWMSIVATTMPIPCGGFMPVFVLGAAFGRLVGEIMAMLFPDGILFDDIIYKILPGGYAVIGAAALTGAVSHTVSTAVICFELTGQIAHILPMMVAVILANMVAQSLQPSLYDSIIQVKKLPYLPDLGWNQLSKYTIFVEDIMVRDVKFVSASYTYGELRTLLQTTTVKTLPLVDSKDSMILLGSVERSELQALLQRHLCPERRLRAAQEMARKLSELPYDGKARLAGEGLPGAPPGRPESFAFVDEDEDEDLSGKSELPPSLALHPSTTAPLSPEEPNGPLPGHKQQPEAPEPAGQRPSIFQSLLHCLLGRARPTKKKTTQDSTDLVDNMSPEEIEAWEQEQLSQPVCFDSCCIDQSPFQLVEQTTLHKTHTLFSLLGLHLAYVTSMGKLRGVLALEELQKAIEGHTKSGVQLRPPLASFRNTTSTRKSTGAPPSSAENWNLPEDRPGATGTGDVIAASPETPVPSPSPEPPLSLAPGKVEGELEELELVESPGLEEELADILQGPSLRSTDEEDEDELIL
notes: human ClC-1 chloride channel, full length, from yeast codon-optimized cDNA; followed by a TEV cleavage site, GFP and His10; released from the Ni-beads by TEV protease; The models cover only part of the chain: membrane domain residues 115-589 (loop 254-261 missing) and trimmed CBS domains; The N terminus and helix A are not resolved; source: yeast strain PAP1500 (pEMBLyex4), 15-L bioreactors; …
Consider B1, for which the binding result is “binds”.

These data come from paper PMC6483157, “Structure of the human ClC-1 chloride channel” (PLoS Biology, 2019).
